# Assay results as given in patent US20100202967A1 (BRACCO IMAGING, published 2010).
# Bridge positions count the residues as written; N and C are the ends. Square brackets hold non-standard residues; d marks the D form. Ends that are not written are not given here. Phe(3,4-F2) = N[C@@H](Cc1ccc(F)c(F)c1)C(=O)O; Thf2ca = tetrahydrofuran-2-carboxylic acid; Phe(4-F) = N[C@@H](Cc1ccc(F)cc1)C(=O)O; Hyp = O=C(O)[C@@H]1C[C@@H](O)CN1; Cha = N[C@@H](CC1CCCCC1)C(=O)O; CF5 = 5-carboxyfluorescein
# T1: fibrin
# T1 chain 1: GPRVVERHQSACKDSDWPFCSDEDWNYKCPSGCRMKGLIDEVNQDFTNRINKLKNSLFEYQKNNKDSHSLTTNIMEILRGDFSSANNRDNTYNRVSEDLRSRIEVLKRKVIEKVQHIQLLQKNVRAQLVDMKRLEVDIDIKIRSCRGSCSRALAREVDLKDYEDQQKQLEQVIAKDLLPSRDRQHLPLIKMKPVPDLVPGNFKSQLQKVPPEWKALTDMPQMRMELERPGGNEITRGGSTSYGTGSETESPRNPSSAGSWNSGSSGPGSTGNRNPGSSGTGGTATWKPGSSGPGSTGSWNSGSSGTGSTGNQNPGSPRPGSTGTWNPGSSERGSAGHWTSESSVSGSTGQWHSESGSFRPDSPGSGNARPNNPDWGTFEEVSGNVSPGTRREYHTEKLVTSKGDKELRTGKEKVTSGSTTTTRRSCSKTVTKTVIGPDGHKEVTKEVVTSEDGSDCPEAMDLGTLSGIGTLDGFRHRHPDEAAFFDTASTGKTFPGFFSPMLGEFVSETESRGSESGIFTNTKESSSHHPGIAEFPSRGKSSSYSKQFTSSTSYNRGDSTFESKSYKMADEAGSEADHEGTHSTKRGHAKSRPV
# T1 chain 2: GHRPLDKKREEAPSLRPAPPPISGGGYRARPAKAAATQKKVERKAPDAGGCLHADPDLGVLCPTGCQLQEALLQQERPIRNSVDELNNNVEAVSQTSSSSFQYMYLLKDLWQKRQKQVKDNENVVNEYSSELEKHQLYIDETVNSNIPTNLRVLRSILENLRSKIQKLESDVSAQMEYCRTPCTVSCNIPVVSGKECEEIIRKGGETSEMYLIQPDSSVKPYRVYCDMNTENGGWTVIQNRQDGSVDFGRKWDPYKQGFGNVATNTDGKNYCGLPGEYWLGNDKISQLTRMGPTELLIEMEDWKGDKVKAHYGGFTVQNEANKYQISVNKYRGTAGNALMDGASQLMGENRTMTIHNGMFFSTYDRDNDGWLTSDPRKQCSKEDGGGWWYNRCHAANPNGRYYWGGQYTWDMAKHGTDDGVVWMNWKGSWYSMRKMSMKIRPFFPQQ
# T1 chain 3: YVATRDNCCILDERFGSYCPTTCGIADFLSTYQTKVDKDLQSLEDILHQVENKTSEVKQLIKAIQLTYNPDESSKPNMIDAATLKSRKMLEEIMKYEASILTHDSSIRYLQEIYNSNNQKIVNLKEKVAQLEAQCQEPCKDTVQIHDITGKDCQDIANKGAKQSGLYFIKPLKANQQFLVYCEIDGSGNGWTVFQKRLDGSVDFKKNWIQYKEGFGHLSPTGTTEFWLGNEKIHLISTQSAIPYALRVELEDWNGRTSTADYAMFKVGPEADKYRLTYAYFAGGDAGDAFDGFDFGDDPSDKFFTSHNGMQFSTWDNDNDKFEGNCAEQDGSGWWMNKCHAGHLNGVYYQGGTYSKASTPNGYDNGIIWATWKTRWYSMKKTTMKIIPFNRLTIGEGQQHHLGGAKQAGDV
# Biological target: fibrin
# Experiment: competition fluorescence polarization assay; reference of Table 6
row,Rel IC50 (ratio (reference peptide itself)),Binder
1,1,WQPCPWESWTFCWDPGGGK (N-terminal acetyl; disulfide Cys4-Cys12 (C*); C-terminal amide) [Ac-WQPC*PWESWTFC*WDPGGGK-NH2]

# Biological target: T1, fibrin
# Experiment: competition fluorescence polarization assay (n = 2)
row,Rel IC50,Binder
1,0.75 ratio to Ac-Seq000-GGGK-NH2,Ac-RRGGWQPC[Hyp]WESWTFCWDPGGGK-NH2 (disulfide 8-16; SMILES CC(=O)N[C@@H](CCCNC(=N)N)C(=O)N[C@@H](CCCNC(=N)N)C(=O)NCC(=O)NCC(=O)N[C@@H](Cc1c[nH]c2ccccc12)C(=O)N[C@@H](CCC(N)=O)C(=O)N1CCC[C@H]1C(=O)N[C@H]1CSSC[C@@H](C(=O)N[C@@H](Cc2c[nH]c3ccccc23)C(=O)N[C@@H](CC(=O)O)C(=O)N2CCC[C@H]2C(=O)NCC(=O)NCC(=O)NCC(=O)N[C@@H](CCCCN)C(N)=O)NC(=O)[C@H](Cc2ccccc2)NC(=O)[C@H]([C@@H](C)O)NC(=O)[C@H](Cc2c[nH]c3ccccc23)NC(=O)[C@H](CO)NC(=O)[C@H](CCC(=O)O)NC(=O)[C@H](Cc2c[nH]c3ccccc23)NC(=O)[C@@H]2C[C@@H](O)CN2C1=O) [Ac-RRGGWQPC*-Hypt4-WESWTFC*WDPGGGK-NH2]

# Biological target: fibrin
# Experiment: fluorescence polarization, direct binding (n = 2)
row,Binder,Kd
1,H-RGWQPCPAESWT[Cha]CWDPGGGK(CF5)-NH2 (disulfide 6-14) [RGWQPC*PAESWT-Cha-C*WDPGGGK(CF5)-NH2],50 nM
2,H-RWQPCPAESWTFCWDPGGGK(CF5)-NH2 (disulfide 5-13) [RWQPC*PAESWTFC*WDPGGGK(CF5)-NH2],60 nM
3,H-RWQPCPWESWTFCWDPGGGK(CF5)-NH2 (disulfide 5-13) [RWQPC*PWESWTFC*WDPGGGK(CF5)-NH2],110 nM
4,RWQPCPAESWTFCWDPGGGK(CF5)-NH2 (disulfide 5-13; not fully specified (N-terminus); printed as RWQPC*PAESWTFC*WDPGGGK(CF5)-NH2) [Ac-RWQPC*PAESWTFC*WDPGGGK(CF5)-NH2],210 nM
5,Ac-GWQPCPAESWTFCWDPGGGK(CF5)-NH2 (disulfide 5-13) [Ac-GWQPC*PAESWTFC*WDPGGGK(CF5)-NH2],240 nM
6,Ac-RWQPCPWESWTFCWDPGGGK(CF5)-NH2 (disulfide 5-13) [Ac-RWQPC*PWESWTFC*WDPGGGK(CF5)-NH2],110 nM
7,Ac-WQPCPWESWTFCWDPGGGK(CF5)-NH2 (disulfide 4-12) [Ac-WQPC*PWESWTFC*WDPGGGK(CF5)-NH2],390 nM
8,Thf2ca-WQPCPWESWTFCWDPGGGK(CF5)-NH2 (disulfide 4-12) [Thf2ca-WQPC*PWESWTFC*WDPGGGK(CF5)-NH2],1210 nM

# The next lines start with the values.
row,Kd,Binder
1,200 nM,Ac-WQPCPWESWT[Cha]CWDPGGGK(CF5)-NH2 (disulfide 4-12) [Ac-WQPC*PWESWT-Cha-C*WDPGGGK(CF5)-NH2]
2,100 nM,Ac-RGWQPCPAESWT[Cha]CWDPGGGK(CF5)-NH2 (disulfide 6-14) [Ac-RGWQPC*PAESWT-Cha-C*WDPGGGK(CF5)-NH2]
3,1020 nM,Ac-WQPCPWESWT[Phe(4-F)]CWDPGGGK(CF5)-NH2 (disulfide 4-12) [Ac-WQPC*PWESWT-Ffe4-C*WDPGGGK(CF5)-NH2]
4,700 nM,"Ac-WQPCPWESWT[Phe(3,4-F2)]CWDPGGGK(CF5)-NH2 (disulfide 4-12) [Ac-WQPC*PWESWT-F34fe-C*WDPGGGK(CF5)-NH2]"
5,240 nM,H-GWQPCPAESWTFCWDPGGGK(CF5)-NH2 (disulfide 5-13) [GWQPC*PAESWTFC*WDPGGGK(CF5)-NH2]

# Biological target: fibrin
# Experiment: competition fluorescence polarization assay (n = 2)
row,Binder,Rel IC50 (ratio to Ac-Seq000-GGGK-NH2)
1,Ac-WQPCPWESWT[Cha]CWDPGGGK-NH2 (disulfide 4-12) [Ac-WQPC*PWESWT-Cha-C*WDPGGGK-NH2],0.494
2,Ac-GWQPCPWESWTFCWDPGGGK-NH2 (disulfide 5-13) [Ac-GWQPC*PWESWTFC*WDPGGGK-NH2],1.04

# More lines, now with the values ahead:
row,Rel IC50 (ratio to Ac-Seq000-GGGK-NH2),Binder
1,0.601,Ac-WQPCPWESWT[Phe(4-F)]CWDPGGGK-NH2 (disulfide 4-12) [Ac-WQPC*PWESWT-Ffe4-C*WDPGGGK-NH2]
2,0.428,"Ac-WQPCPWESWT[Phe(3,4-F2)]CWDPGGGK-NH2 (disulfide 4-12) [Ac-WQPC*PWESWT-F34fe-C*WDPGGGK-NH2]"
3,0.616,Thf2ca-WQPCPWESWTFCWDPGGGK-NH2 (disulfide 4-12) [Thf2ca-WQPC*PWESWTFC*WDPGGGK-NH2]
4,0.622,H-GWQPCPWESWTFCWDPGGGK-NH2 (disulfide 5-13) [GWQPC*PWESWTFC*WDPGGGK-NH2]
